Measured values from article PMC5383425, “Differential CLE peptide perception by plant receptors implicated from structural and functional analyses of TDIF-TDR interactions” (PLoS ONE, 2017).
Changes are numbered by the printed parent chain. Square brackets hold non-standard residues; d marks the D form. Ends that are not written are not given here. Hyp = O=C(O)[C@@H]1C[C@@H](O)CN1

Legend:
Test in all cases: ITC; 0.5–1 mM peptide titrated into 10–40 μM ecdTDR; 25°C; 10 mM sodium citrate, 100 mM NaCl, pH 5.5; fitted to one set of binding sites; MicroCal Auto-iTC200
Conditions in all cases: both partners purified
[1] = molecular target: T1, ecdTDR Y234 alanine mutant (Arabidopsis thaliana, UniProt Q9FII5 30-642, alanine substitution of Y234)
T1 construct: TDR/PXY of A. thaliana, extracellular domain, residues 30-642; The text says only 'mutational analyses' of Y234; source: High Five insect cells (baculovirus), secreted, purified as the wild type (Ni-NTA, size-exclusion chromatography)
T1 sequence (looked up): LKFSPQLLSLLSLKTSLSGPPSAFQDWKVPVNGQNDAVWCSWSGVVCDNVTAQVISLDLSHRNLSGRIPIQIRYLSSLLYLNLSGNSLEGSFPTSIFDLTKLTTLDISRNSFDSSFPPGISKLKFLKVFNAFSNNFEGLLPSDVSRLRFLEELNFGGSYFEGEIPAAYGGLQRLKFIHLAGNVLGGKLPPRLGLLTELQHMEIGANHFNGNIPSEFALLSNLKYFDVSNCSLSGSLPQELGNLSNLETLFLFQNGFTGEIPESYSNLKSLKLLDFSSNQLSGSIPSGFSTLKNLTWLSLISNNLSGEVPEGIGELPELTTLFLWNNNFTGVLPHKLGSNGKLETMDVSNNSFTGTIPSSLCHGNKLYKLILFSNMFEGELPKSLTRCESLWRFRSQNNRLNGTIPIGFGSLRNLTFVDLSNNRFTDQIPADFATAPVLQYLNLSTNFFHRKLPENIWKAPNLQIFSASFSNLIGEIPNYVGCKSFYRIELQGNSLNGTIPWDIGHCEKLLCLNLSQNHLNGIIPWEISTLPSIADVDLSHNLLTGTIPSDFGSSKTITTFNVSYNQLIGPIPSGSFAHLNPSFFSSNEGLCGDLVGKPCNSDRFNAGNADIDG

[2] = molecular target: T2, ecdTDR F279 alanine mutant (Arabidopsis thaliana, UniProt Q9FII5 30-642, alanine substitution of F279)
T2 construct: TDR/PXY of A. thaliana, extracellular domain, residues 30-642; The text says only 'mutational analyses' of F279; source: High Five insect cells (baculovirus), secreted, purified as the wild type (Ni-NTA, size-exclusion chromatography)
T2 sequence (looked up): T1 sequence (looked up) with A205Y, F250A

[3] = molecular target: T3, ecdTDR F281 alanine mutant (Arabidopsis thaliana, UniProt Q9FII5 30-642, alanine substitution of F281)
T3 construct: TDR/PXY of A. thaliana, extracellular domain, residues 30-642; The text says only 'mutational analyses' of F281; source: High Five insect cells (baculovirus), secreted, purified as the wild type (Ni-NTA, size-exclusion chromatography)
T3 sequence (looked up): T1 sequence (looked up) with A205Y, F252A

Measured: binding result

B1: Tracheary Element Differentiation Inhibitory Factor (TDIF) peptide (peptide)
peptide: HEV[Hyp]SG[Hyp]NPISN
notes: TDIF, the 12-residue CLE peptide processed from CLE41 and CLE44 of A. thaliana; printed as HEV(Hyp)SG(Hyp)NPISN; numbers count on: the 12-residue peptide; CLE44 encodes the same peptide; also called wild type TDIF; wtTDIF; source: synthetic peptide (peptide 2.0)
binds: all assays above
